Columns and labels:
Experiment in all cases: ELISA; cytokine coated, ECM protein 0.02 to 320 nM, KD by non-linear fit
[1] = target: Tenascin C
[2] = target: Fibrinogen
[3] = target: Osteopontin
[4] = target: Vitronectin
[5] = target: Fibronectin
Chain of Fibronectin (P02751 32-2477): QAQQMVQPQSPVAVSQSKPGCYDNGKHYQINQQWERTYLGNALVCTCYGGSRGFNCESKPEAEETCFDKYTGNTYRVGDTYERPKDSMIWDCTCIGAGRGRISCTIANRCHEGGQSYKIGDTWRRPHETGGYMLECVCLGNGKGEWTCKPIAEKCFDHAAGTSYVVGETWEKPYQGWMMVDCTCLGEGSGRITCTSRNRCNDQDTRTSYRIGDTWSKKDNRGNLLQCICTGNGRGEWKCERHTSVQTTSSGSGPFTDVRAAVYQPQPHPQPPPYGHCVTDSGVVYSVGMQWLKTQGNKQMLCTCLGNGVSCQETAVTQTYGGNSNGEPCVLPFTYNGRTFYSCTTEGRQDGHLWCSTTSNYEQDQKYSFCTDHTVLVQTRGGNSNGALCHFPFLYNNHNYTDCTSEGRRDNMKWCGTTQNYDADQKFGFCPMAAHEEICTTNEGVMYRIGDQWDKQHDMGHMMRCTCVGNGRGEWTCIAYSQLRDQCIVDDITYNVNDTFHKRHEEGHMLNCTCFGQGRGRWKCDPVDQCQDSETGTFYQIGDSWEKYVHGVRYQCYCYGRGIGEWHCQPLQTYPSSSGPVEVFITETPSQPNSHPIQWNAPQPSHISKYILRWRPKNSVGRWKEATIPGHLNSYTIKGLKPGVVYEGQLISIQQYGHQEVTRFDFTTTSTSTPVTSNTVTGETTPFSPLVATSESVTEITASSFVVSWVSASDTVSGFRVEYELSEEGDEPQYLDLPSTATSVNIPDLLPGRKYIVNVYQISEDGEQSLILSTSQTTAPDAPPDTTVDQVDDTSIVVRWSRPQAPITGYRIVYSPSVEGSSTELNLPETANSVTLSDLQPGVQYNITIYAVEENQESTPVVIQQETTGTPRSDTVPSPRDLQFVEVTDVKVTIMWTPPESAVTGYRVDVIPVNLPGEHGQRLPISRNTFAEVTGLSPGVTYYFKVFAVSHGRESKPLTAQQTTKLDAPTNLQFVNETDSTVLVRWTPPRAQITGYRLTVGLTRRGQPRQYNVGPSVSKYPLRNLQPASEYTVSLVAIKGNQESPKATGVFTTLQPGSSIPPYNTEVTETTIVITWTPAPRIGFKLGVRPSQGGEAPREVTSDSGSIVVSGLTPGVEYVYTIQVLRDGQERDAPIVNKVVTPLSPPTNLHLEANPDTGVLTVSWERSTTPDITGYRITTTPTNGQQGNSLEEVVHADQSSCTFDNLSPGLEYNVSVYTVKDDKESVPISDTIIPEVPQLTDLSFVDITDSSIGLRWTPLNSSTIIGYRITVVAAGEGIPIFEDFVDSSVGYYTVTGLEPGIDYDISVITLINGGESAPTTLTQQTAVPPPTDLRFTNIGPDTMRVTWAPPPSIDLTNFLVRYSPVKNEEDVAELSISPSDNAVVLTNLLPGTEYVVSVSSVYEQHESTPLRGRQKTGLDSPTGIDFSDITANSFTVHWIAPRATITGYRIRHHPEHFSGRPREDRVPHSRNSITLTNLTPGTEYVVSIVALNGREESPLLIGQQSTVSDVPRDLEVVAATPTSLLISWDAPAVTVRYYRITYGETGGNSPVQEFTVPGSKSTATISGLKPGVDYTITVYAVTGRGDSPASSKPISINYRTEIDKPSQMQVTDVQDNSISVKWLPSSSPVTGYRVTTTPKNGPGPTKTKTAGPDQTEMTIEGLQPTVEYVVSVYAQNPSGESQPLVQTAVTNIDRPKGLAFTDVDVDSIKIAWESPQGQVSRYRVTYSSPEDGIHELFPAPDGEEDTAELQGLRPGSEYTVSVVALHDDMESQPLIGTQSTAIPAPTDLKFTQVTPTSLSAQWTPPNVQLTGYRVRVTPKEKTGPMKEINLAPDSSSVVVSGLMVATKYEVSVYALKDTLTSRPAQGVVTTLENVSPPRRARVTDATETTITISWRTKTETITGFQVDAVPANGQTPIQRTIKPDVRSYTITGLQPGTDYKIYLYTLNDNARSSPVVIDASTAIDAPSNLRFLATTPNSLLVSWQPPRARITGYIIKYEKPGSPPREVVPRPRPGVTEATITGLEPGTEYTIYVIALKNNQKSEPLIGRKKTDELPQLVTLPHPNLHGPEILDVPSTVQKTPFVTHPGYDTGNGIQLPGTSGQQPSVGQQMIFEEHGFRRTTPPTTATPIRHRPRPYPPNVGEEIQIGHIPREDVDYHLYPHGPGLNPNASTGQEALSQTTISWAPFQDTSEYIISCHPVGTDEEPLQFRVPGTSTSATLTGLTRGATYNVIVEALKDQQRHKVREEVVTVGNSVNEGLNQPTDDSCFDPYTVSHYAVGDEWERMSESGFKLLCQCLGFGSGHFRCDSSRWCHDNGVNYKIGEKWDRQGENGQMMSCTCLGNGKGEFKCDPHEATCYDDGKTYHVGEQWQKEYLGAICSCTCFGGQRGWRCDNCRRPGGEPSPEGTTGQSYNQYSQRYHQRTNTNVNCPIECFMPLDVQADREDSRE

Chain of human PDGF-BB (P01127 82-190 limits assumed): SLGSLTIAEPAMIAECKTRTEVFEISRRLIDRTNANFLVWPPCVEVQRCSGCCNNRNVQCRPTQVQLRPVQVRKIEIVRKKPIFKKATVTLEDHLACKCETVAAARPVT
Chain of VEGF-A165 (P15692 other isoform, or with tags, fused parts or gaps limits assumed): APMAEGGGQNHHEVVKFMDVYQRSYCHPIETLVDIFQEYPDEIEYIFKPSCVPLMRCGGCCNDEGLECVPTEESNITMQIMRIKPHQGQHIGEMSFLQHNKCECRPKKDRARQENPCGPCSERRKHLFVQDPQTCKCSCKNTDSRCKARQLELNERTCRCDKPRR
Chain of Osteopontin (P10451 17-314): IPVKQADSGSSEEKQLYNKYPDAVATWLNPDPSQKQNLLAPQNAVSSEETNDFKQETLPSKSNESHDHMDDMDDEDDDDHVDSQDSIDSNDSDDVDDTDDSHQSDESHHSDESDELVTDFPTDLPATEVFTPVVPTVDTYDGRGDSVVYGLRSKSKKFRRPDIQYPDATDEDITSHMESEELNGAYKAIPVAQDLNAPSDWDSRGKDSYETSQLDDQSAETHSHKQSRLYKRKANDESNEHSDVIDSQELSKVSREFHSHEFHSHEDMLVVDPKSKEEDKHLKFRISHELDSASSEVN
Chain of human VEGF-A121-PlGF2123-144 (P15692 other isoform, or with tags, fused parts or gaps): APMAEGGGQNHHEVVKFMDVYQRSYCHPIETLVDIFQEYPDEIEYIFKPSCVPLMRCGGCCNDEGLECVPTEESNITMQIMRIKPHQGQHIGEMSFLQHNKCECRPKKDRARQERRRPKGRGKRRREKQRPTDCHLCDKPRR
Chain of Vitronectin (P04004 20-478): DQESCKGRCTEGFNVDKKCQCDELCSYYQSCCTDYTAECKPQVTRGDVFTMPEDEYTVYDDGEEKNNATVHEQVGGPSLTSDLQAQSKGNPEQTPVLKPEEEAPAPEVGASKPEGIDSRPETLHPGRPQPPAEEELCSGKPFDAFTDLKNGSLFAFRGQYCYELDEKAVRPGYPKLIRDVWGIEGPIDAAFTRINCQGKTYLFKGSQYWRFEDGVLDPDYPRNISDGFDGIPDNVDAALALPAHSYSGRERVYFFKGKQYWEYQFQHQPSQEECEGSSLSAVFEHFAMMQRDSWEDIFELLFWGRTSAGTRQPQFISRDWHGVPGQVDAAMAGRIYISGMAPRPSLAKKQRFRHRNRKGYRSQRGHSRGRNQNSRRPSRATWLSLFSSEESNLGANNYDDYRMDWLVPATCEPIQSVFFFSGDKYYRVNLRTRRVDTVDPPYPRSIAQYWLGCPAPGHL

Kd [1] | Kd [2] | Kd [3] | Kd [4] | Kd [5] | Substance
10.1 nM | 4.5 nM | 13.1 nM | 2 nM | 7.2 nM | PlGF2 (ligand)
115 nM | 302 nM | 71 nM | 70.9 nM | 97.2 nM | VEGF-A165 (from UniProt P15692 27-191) (ligand)
19 nM | 250 nM | 20.3 nM | 10.5 nM | 11.6 nM | human PDGF-BB (from UniProt P01127 82-190) (ligand)
18 nM | 5.8 nM | 26.4 nM | 2.8 nM | 11.2 nM | human VEGF-A121-PlGF2123-144 (from UniProt P15692 207-395) (ligand)

— patent US20140010832A1
